# Assays:
# [1] = biological target: CRL5^Ozz, reconstituted five-component complex (Ozz–EloBC + Cul5–Rbx1) (human) (UniProt Q9BR09); assay: SEC; purified Ozz–EloBC and Cul5–Rbx1 mixed 1:1; Superose 6 10/300GL, 50 mM Tris pH 7.6, 150 mM NaCl, 0.3 ml/min; fractions on SDS gels stained with SYPRO Ruby
# [2] = biological target: CRL5^Ozz, reconstituted five-component complex (Ozz–EloBC + Cul5–Rbx1) (human) (UniProt Q9BR09); assay: AUC; sedimentation velocity, 50,000 rpm, 20 °C, interference optics; 10 mM sodium phosphate, 1.8 mM potassium phosphate pH 7.2, 137 mM NaCl, 0.27 mM KCl; c(s) and two-dimensional c(s,f/f0) analysis of the same data; co-purified subcomplexes alone (Ozz–EloBC 0.35 or 1.00 mg/ml, Cul5–Rbx1 0.21 mg/ml) and their 1:1 mixture (0.75 mg/ml)
# [3] = biological target: CRL5^Ozz, reconstituted five-component complex (Ozz–EloBC + Cul5–Rbx1) (human) (UniProt Q9BR09); assay: co-sedimentation; 15–45% glycerol gradient ultracentrifugation with micro-fractionation; 20 mM Tris–HCl pH 7.6, 150 mM NaCl; 55,000 r.p.m., 8 h (also 12 h), 4 °C; fractions on SDS gels stained with SYPRO Ruby, densitometry
# [4] = biological target: Ozz–EloBC subcomplex (human) (UniProt Q9BR09); assay: AUC; sedimentation velocity, 50,000 rpm, 20 °C, interference optics; 10 mM sodium phosphate, 1.8 mM potassium phosphate pH 7.2, 137 mM NaCl, 0.27 mM KCl; c(s) and two-dimensional c(s,f/f0) analysis of the same data; co-purified subcomplexes alone (Ozz–EloBC 0.35 or 1.00 mg/ml, Cul5–Rbx1 0.21 mg/ml) and their 1:1 mixture (0.75 mg/ml)
# [5] = biological target: Ozz–EloBC subcomplex (human) (UniProt Q9BR09); assay: AUC; sedimentation velocity, isotherm of signal-weighted-average s (3 to 7 S) of Ozz–EloBC at 1.8 to 13.3 μM; reversible monomer–dimer self-association model (dimer to monomers of the 1:1:1 complex), SEDPHAT; same buffer, 20 °C
# Chain of Cul5–Rbx1 subcomplex (Q93034 whole entry): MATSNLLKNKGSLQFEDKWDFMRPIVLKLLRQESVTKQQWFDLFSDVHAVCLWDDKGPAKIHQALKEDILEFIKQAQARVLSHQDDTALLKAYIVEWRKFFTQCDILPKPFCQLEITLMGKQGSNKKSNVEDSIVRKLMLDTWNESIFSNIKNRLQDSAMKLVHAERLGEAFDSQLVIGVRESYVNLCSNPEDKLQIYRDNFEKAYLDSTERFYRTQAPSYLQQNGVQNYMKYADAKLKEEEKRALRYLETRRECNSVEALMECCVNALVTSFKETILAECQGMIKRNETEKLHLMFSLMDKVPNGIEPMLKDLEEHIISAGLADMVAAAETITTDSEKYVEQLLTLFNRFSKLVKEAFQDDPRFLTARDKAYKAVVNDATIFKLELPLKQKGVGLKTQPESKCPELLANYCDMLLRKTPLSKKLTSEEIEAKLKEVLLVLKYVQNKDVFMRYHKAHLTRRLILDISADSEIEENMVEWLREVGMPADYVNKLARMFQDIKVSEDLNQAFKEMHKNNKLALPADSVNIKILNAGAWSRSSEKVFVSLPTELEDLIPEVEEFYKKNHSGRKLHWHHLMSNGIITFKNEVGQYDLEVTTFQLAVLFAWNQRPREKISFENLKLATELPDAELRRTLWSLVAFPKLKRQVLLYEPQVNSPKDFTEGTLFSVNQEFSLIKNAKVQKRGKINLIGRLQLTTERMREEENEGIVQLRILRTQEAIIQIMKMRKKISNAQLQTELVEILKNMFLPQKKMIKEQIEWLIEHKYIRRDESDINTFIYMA
# Chain of Cul5–Rbx1 subcomplex (P62877 whole entry): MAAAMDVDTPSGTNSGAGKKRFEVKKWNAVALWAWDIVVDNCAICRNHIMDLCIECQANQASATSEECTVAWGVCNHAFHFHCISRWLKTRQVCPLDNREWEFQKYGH
stoichiometry N [1],"percent of total protein in the dimer peak, c(s) [2]","percent of total protein in the dimer peak, c(s,f/f0) [2]",stoichiometry N [2],stoichiometry N [3],"percent of total protein in the peak of the 1:1:1:1:1 complex, c(s) [4]","percent of total protein in the peak of the 1:1:1:1:1 complex, c(s,f/f0) [4]",stoichiometry N [4],Kd [5],"percent of total protein in the dimer peak, c(s) [4]","percent of total protein in the dimer peak, c(s,f/f0) [4]",Substance
2,5%,8%,2,2,,,,,,,"CRL5^Ozz, reconstituted five-component complex (Ozz–EloBC + Cul5–Rbx1) (from UniProt Q9BR09 1-285; Q15370 1-118; Q15369 1-112; Q93034 1-780; P62877 1-108)"
,,,,,55%,48%,1,,,,Cul5–Rbx1 subcomplex (from UniProt Q93034 1-780; P62877 1-108)
,,,,,,,2,0.7 µM,53%,52%,Ozz–EloBC subcomplex (from UniProt Q9BR09 1-285; Q15370 1-118; Q15369 1-112)

# From paper PMC9098882
